Values quoted from earlier work as cited in paper PMC9313270.

Molecular target: leptin (UniProt P41159)
Assay: not stated (listed for the qPCR aptasensor, 'This work')
Conditions: leptin binding buffer (composition not given); aptamer-adaptor annealing 15 min at 37 C, leptin incubation 30 min at 37 C, polymerase extension 10 min at 60 C …

Chain of leptin (P41159 22-167): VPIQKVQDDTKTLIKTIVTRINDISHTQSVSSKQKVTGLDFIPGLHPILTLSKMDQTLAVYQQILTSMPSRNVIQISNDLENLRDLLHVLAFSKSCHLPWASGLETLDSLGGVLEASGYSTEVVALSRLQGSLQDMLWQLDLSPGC

GTTAATGGGGGATCTCGCGGCCGTTCTTGTTGCTTATACA [leptin aptamer (Ashley and Li)]
Kd: 1500 nM
